Data as given in patent US7026125, “Heterodimers of retinoid X receptors (RXRS) and other steroid hormone receptors” (Ligand Pharmaceuticals).

Legend:
Settings in all cases: label: 32P
[1] = molecular target: TRα/RXRαm3 (UniProt P10827-2;P19793 P10827-2:1-410,P19793:28-462, RXRα N-terminal deletion of 28 aa); assay: EMSA
Protocol: (§1) In vitro translated receptor protein (1 to 5 μl depending on the translation efficiency) was incubated with the ^32P-labeled oligonucleotides in a 20-μl reaction mixture containing 10 mM hepes buffer, pH 7.9, 50 mM KCl, 1 mM DTT, 2.5 mM MgCl, 10% glycerol, and 1 μg of poly(dI-dC) at 25° C. for 20 minutes. In general, relative low receptor concentration was used to obtain the clear effect of heterodimer formation. The reaction mixture was then loaded on a 5% nondenaturing ployacrylamide gel containing 0.5×TBE (1×TBE=0.089 M Tris-borate, 0.089 M boric acid, and 0.002 M EDTA). To analyze the effect of RXRα or the nuclear proteins on receptor DNA binding activity, RXRα or the cell extracts were preincubated with receptor protein at room temperature for 10 minutes before performing the DNA binding assay. When antibody was used, 1 μl of the antiserum was incubated with the specific translation products at room temperature for 45 minutes before performing the experiments described above.

[2] = molecular target: RARγ + RXRαm5 (UniProt P13631;P19793 P13631:1-454,P19793:198-462, RXRα N-terminal deletion of 198 aa including DNA binding domain); assay: EMSA
Chain of RARγ + RXRαm5 (P13631 whole entry, stated change not applied, chain 1 of 2, the tested form may be a part): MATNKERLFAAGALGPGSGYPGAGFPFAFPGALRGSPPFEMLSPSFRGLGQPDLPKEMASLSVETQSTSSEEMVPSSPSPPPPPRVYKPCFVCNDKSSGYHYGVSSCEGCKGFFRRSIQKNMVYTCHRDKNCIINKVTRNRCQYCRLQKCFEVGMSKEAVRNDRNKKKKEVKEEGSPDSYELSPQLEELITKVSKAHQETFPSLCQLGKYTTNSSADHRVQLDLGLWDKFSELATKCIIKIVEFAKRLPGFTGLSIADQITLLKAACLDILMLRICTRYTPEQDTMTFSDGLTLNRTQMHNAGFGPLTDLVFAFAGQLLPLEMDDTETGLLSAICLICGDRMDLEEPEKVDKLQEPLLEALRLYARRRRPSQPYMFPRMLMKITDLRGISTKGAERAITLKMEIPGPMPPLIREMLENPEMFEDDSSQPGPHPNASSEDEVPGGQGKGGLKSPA
Chain of RARγ + RXRαm5 (P19793 199-462, stated change not applied, chain 2 of 2): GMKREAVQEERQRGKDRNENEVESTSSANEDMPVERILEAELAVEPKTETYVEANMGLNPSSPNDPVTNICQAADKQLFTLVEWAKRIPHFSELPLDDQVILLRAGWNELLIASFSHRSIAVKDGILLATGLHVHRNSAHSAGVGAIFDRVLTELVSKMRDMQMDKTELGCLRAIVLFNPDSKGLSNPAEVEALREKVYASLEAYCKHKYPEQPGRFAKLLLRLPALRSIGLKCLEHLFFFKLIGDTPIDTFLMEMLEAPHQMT
Protocol: as §1

[3] = molecular target: RARγ/RXRαm3 (UniProt P13631;P19793 P13631:1-454,P19793:28-462, RXRα N-terminal deletion of 28 aa); assay: EMSA
Chain of RARγ/RXRαm3 (P13631 whole entry, stated change not applied, chain 1 of 2): as the sequence (P13631 whole entry, stated change not applied, chain 1 of 2, the tested form may be a part) above
Chain of RARγ/RXRαm3 (P19793 29-462, stated change not applied, chain 2 of 2): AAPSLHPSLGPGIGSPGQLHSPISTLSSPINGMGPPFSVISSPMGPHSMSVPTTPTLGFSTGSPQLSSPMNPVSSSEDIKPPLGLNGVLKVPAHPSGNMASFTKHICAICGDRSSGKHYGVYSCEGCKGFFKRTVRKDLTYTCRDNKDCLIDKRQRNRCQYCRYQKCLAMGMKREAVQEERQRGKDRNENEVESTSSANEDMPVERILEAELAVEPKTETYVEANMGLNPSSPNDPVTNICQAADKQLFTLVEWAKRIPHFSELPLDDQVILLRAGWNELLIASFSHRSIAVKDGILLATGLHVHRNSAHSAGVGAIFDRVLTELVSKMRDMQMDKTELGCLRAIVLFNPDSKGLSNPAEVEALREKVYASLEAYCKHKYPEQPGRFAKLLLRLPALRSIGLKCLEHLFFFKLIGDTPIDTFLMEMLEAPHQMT
Protocol: as §1

[4] = molecular target: T1, RARβ (UniProt P10826-2 P10826-2:1-448); assay: EMSA; no detectable complex under conditions used
T1 sequence: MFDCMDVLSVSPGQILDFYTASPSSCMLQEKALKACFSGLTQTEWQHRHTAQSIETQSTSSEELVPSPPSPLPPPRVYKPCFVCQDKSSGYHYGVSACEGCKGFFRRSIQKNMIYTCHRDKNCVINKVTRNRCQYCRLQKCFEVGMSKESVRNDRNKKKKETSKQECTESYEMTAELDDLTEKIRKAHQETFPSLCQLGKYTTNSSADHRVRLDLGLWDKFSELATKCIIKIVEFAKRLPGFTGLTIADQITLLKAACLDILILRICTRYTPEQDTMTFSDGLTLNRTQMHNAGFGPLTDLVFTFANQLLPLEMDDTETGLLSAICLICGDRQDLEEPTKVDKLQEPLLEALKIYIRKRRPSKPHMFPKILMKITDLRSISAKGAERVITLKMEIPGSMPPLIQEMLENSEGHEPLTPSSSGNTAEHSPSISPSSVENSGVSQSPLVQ
Protocol: (§2) (a) In vitro synthesized TRα, TRβ, RARα, RARβ, RARγ and TRα2 receptor proteins were preincubated either with (+) or without (−) equal amount of in vitro synthesized RXRα protein at room temperature for 10 minutes. Following this preincubation, the reaction mixtures were incubated with ^32p-labelled palindromic TRE (for 1 sequence see FIG. 2a) and analyzed by gel retardation assay as described in Experimental Procedures. […] As a control, equal amounts of TRα and RARα proteins were also mixed and incubated with labelled TRE.
as §1

[5] = molecular target: TRβ/RXRα heterodimer (UniProt P10828;P19793 P10828:1-461,P19793:1-462); assay: EMSA; upshifted complex
Chain of TRβ/RXRα heterodimer (P10828 whole entry, chain 1 of 2): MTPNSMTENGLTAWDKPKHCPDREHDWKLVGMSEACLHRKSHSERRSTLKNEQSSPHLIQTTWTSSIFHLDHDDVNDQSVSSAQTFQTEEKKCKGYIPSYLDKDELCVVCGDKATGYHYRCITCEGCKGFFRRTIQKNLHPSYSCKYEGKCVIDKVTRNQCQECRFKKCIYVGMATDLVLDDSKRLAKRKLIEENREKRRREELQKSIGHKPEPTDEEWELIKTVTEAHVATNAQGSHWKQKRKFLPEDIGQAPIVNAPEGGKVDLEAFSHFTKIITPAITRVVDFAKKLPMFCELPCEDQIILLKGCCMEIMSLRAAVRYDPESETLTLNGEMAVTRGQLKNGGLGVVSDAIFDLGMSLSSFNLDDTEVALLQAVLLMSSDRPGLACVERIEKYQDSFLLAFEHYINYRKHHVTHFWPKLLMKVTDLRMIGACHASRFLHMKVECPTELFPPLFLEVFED
Chain of TRβ/RXRα heterodimer (P19793 whole entry, chain 2 of 2): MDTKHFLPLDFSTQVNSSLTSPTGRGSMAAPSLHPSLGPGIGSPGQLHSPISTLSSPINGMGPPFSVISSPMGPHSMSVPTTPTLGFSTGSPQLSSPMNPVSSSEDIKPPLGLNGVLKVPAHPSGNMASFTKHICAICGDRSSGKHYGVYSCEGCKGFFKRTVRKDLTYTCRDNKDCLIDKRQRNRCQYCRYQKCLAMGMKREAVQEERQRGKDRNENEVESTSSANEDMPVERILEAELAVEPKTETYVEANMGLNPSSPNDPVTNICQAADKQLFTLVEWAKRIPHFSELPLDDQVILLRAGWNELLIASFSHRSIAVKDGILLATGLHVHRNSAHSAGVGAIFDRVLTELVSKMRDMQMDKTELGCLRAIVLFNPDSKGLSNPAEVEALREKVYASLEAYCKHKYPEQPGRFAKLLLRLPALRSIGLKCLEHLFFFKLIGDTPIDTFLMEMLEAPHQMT
Protocol: as §2
as §1, with “When antibody was used, 1 μl of the antiserum was incubated with the specific translation products at room temperature for 45 minutes before performing the experiments described above.” left out

[6] = molecular target: RARγ/RXRαm4 (UniProt P13631;P19793 P13631:1-454,P19793:61-462, RXRα N-terminal deletion of 61 aa); assay: EMSA; faster migrating than RXRαm3 complex
Chain of RARγ/RXRαm4 (P13631 whole entry, stated change not applied, chain 1 of 2): as the sequence (P13631 whole entry, stated change not applied, chain 1 of 2, the tested form may be a part) above
Chain of RARγ/RXRαm4 (P19793 62-462, stated change not applied, chain 2 of 2): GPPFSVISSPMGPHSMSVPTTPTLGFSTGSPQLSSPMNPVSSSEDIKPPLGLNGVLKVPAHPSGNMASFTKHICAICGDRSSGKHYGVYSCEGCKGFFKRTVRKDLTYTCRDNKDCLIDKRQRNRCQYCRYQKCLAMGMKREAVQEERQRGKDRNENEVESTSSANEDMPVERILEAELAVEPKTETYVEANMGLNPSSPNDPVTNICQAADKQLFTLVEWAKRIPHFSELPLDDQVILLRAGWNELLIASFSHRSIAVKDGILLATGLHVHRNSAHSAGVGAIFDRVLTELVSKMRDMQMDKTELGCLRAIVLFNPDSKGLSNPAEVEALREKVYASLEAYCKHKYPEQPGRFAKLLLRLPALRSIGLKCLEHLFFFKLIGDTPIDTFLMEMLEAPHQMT
Protocol: as §1

[7] = molecular target: TRα/RXRα heterodimer (UniProt P10827-2;P19793 P10827-2:1-410,P19793:1-462); assay: EMSA; at least an order of magnitude more effective than either alone; T3 or RA no clear effect
Chain of TRα/RXRα heterodimer (P19793 whole entry, one chain of several): as the sequence (P19793 whole entry, chain 2 of 2) above
Protocol: as §2
as §1, with “When antibody was used, 1 μl of the antiserum was incubated with the specific translation products at room temperature for 45 minutes before performing the experiments described above.” left out

Chain of TRα/RXRαm3 (P19793 29-462, stated change not applied, one chain of several): as the sequence (P19793 29-462, stated change not applied, chain 2 of 2) above

B1: palindromic TRE (dsDNA)
DNA 1: GATCTCAGGTCATGACCTGAGATC
DNA 2: GATCTCAGGTCATGACCTGAGATC
- binding result [1]: binds
- binding result [2]: no binding
- binding result [3]: binds
- binding result [4]: no binding
- binding result [5]: binds
- binding result [6]: binds
- binding result [7]: binds
